B1: TPR t1 (parent)
chain: GACCAAUCUGCCCUCAGAGCUCGAGAACAUCUUCGGAUGCAGAGGAGGCAGGCUUCGGUGGCGCGAUAGCGCCAACGUCCUCAACCUCCAAUGCAUCCCACCACAUGAUGAUGCCUGAAGAGCCUUGGUUUUUUG

Variants of: B1
Assay: polymerase ribozyme fitness, log enrichment relative to wild type (log ratio); higher = more active; in vitro selection for triplet polymerase activity
Summary of the method: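 Streptavidin-bead capture of gel-excised extended constructs, followed by RT-PCR, closed a single triplicate in vitro selection round. That round began by annealing PCR-built, transcribed mutant libraries of each subunit of a heterodimeric triplet polymerase ribozyme with a biotinylated primer, the partner subunit and triplets, then incubating them frozen at −7 °C. After Illumina sequencing of inputs and outputs, genotypes needed ≥10 input reads and ≥1 read per output. Fitness is the base-2 logarithm of genotype enrichment over wild-type enrichment, using inverse-variance-weighted replicate averages.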

Row | Variant | polymerase ribozyme fitness (log ratio)
1 | U21C C56A C70U C82A | -2.18
2 | C22G G63A C114U | -3.48
3 | C20U G57A U78C | -3.25
4 | C22G G23A G61U C89U C114U | -3.99
5 | C20U G60A C124U | 0.188
6 | C22U G69A C104G A111C | -7.35
7 | C22G G110U U125G | -4.31
8 | C22G G77C C88G C123U | -3.61
9 | C22G A43U U106A C115A | -1.37
10 | C20U G42A C124G U126C G135U | -1.98
11 | U21A G42A A46U G60A G120A | -2.58
12 | U21G G36C C72G | -2.78
13 | C20G G135C | -3.68
14 | C22G U38A C64U G77U G120A | -3.99
15 | G23U A24C C31G C72U A83C A90U G93A G107U U109A | -6.51
16 | U21C G110U G113U | -4.79
17 | U21G C72A | -0.561
18 | C20U G60A G107C G120C | -5.52
19 | C22G A41C G44C G69U C79G A90C | -5.69
20 | C22G C115A | -4.07
21 | C22G C73G U133G | -4.48

Row | Variant | polymerase ribozyme fitness (log ratio)
22 | C22G A68G | -5.5
23 | U21A G60A A74U A100U U125G U132A | -0.987
24 | G23U A29G C70A A83U C85A C115U | -7.23
25 | C22G C64U C115U A121U | -2.57
26 | C22U A66U G120A | -4.81
27 | U21G C64U C72U C73G | -3.77
28 | C22U C82A U87G | -5.14
29 | U21A G44A | -1.07
30 | G23A G48U | -5.02
31 | U21G C94U | -1.8
32 | U21A C49A G63U | -2.05
33 | C22U G120C U130G | -4.69
34 | C22G G60U C85A | -4.53
35 | C20U A43G G63A | -4.59
36 | C22G G44U G48U G63U A91C A111U | -6.95
37 | U21A G45U C101U U106C | -4.17
38 | C20U G42C | -2.14
39 | C22U C40G G69U C79U C82G | -3.66
40 | C22A A91G | -4.94
41 | U21G A119G | -0.142
42 | C20U G60A G61A C99U | -5.32

Row | Variant | polymerase ribozyme fitness (log ratio)
43 | C22A A95U | -4.83
44 | C22G G39C A50G G51A C115U | -5.65
45 | C22G G110U U112G | -7.26
46 | U21A G63A C88A A91C | -5.41
47 | C22G C94G | -4.33
48 | C22A A83G | -5.4
49 | C20U A43U C114G C123A | -2.41
50 | C20G G71A C72A C80U G110C G117C | -6.92
51 | U21C G44A A119G U125G | -1.38
52 | G23C A27G G110U | -6.38
53 | G23A G48A C86G | -6.91
54 | U21G A50U | -2.82
55 | G23C G58A G61A C94G A111C | -7.65
56 | U21A C72A | -0.312
57 | C22G C73A | -3.17
58 | C22G G23A U125A G128U | -4.85
59 | C22G A26C G39U A50G C72U U112C | -4.01
60 | C22G A26C G42C A84U | -6.04
61 | C22G U92G | -5.35
62 | G23C G120C | -5.28
63 | G23C A27C C53U U54C C62A C88G C99U C124U U130A U131G | -7.2

Row | Variant | polymerase ribozyme fitness (log ratio)
64 | C20U G135U | -1.97
65 | G23A G77U | -6.47
66 | U21A A43U C73U A90G | -2.19
67 | C22A G45U C62U C73U | -5.77
68 | U21A G45U | -1.28
69 | C22U G51A G61C U109A G117C | -7.16
70 | C22G U78C | -3.01
71 | C22G U78G | -4.47
72 | C20U C40A G44C C49G G71A C115A A119G | -4.83
73 | G23A C82G | -5.43
74 | U21G C88G U96A C102U | -5.77
75 | U21G C73G A83G | -3.58
76 | C22U U54G | -3.24
77 | U21A A50U C73U C76G C89A | -4.66
78 | C20G G117U | -5.16
79 | C20U C34U | -5.22
80 | C22A C72A C73A | -5.32
81 | C22G C86U C123A | -3.08
82 | C20U G48C U54G A74C | -3.11
83 | C20U U112G | -1.11

Source: the RNAGym collection of RNA variant scans (doi:10.1073/pnas.2313332121)
